From US20060263849A1, “Glucagon-like peptide-1 analogs” (priority 2000, published 2006)
Several values for one entry are separate records, joined by “and”; a condition that tells them apart may be missing. Identical values can stand only once.

Experiments:
[1] = GLP Aggregation Assay (time to onset of aggregation, turbidity at 350 nm); format: physicochemical; conditions: for Aggregation Time: 0.3 mg/mL in 10 mM citrate, 10 mM phosphate, 150 mM NaCl, pH 7.4 to 7.5, 37° C., stirred, turbidity at 350 nm
Method: GLP peptides of this invention were analyzed with respect to their potential to aggregate in solution. In general, peptides in solution were stirred at elevated temperature in a suitable buffer while recording turbidity at 350 nm as a function of time. Time to the onset of aggregation was measured to quantify the potential of a given GLP molecule to aggregate under these stressed conditions.
A GLP-1 compound was first dissolved under alkaline conditions (pH 10.5) for 30 minutes to dissolve any pre-aggregated material. The solution was then adjusted to pH 7.4 and filtered. Specifically, 4 mg of a lyophilized GLP-1 compound was dissolved in 3 ml of 10 mM phosphate/10 mM citrate. The pH was adjusted to 10.0-10.5 and held for 30 minutes. The solution was adjusted with HCl to pH 7.4 and filtered through a suitable filter, for example a Millex GV syringe filter (Millipore Corporation, Bedford, Mass.). This solution was then diluted to a final sample containing 0.3 mg/mL protein in 10 mM citrate, 10 mM phosphate, 150 mM NaCl, and adjusted to pH 7.4 to 7.5. […] Every five minutes the turbidity of the solution was measured at 350 nm on an AVIV Model 14DS UV-VIS spectrophotometer (Lakewood, N.J.). For 30 seconds prior to and during the measurement the solution was stirred using a magnetic stir bar from Starna Cells, Inc. (Atascadero, Calif.). An increase in OD at 350 nm indicates aggregation of the GLP-peptide. The time to aggregation was approximated by the intersection of linear fits to the pre-growth and growth phase according to method of Drake (Arvinte T, Cudd A, and Drake A F. (1993) J. Bio. Chem. 268, 6415-6422).
The cuvette was cleaned between experiments with a caustic soap solution (e.g., Contrad-70).
The results for a number of GLP-1 compounds of the present invention are reported in Table 1 as the time in hours required for the compound to aggregate.

[2] = Zinc precipitation of GLP-1 compounds (A280 of supernatant); format: physicochemical; conditions: HEPES pH 7.4, 22° C., 18 hours
Method: Individual GLP-1 compounds were prepared as described in Examples 1 or 2. 3 mg of an individual lyophilized GLP molecule was dissolved in 3 ml 0.1 M HEPES buffer pH 10.5. The pH of the resulting solution was then adjusted to between 10.0 and 10.5 with 0.2 N NaOH. The solution was stirred at ambient temperature for 30 minutes and the solution was then adjusted to a pH of 7.4 with 0.2 N HCl. The solution was filtered through an appropriate syringe filter, for example a Millex GV syringe filter (Millipore Corporation, Bedford, Mass.), and the concentration of the GLP-1 compound was estimated by measuring the absorption at 280 nm in a spectrophotometer, for example a Beckman DU640. The protein concentration was then adjusted to 200 μM in HEPES pH 7.4.
The filtered GLP-1 solutions (100 μl) were diluted with 100 μl of 0.1 M HEPES pH 7.4 containing various levels of zinc chloride in an ELISA plate, (e.g. Falcon Microtest™ 96) resulting in 200 μl of solution containing various levels of zinc chloride and 100 μM GLP-1 compounds. These solutions were incubated at ambient temperature (22° C.) for 18 hours and then centrifuged, for example, in a Jouan CR412 centrifuge with microplate adapters. 150 μl of the supernatants after centrifugation were then transferred to a UV-readable ELISA microtiter plate (e.g. Costar UV plate) and the OD at 280 was determined in a microplate reader (e.g. Molecular Devices SPECTRAmax PLUS, SOFTmax PRO). A280 values are the result of two independent determinations.

GLP-1 receptor = GLP-1 receptor activation, in vitro assays; format: cell-based; conditions: for GLP-1 Receptor Activation: activity relative to the activity of GLP-1(7-37)OH
Source text: “Insulinotropic activity” refers to stimulating insulin secretion in response to elevated glucose levels, thereby causing glucose uptake by cells and decreased serum glucose levels. Insulinotropic activity can be assessed by methods known in the art, including using in vivo experiments and in vitro assays that measure GLP-1 receptor binding activity or receptor activation, e.g., assays employing pancreatic islet cells or insulinoma cells, as described in EP 619,322 to Gelfand, et al., and U.S. Pat. No. 5,120,712, respectively. The entire teachings of these references are incorporated herein by reference.
The ability of the GLP-1 compounds of the present invention to activate the GLP-1 receptor was assessed using in vitro assays such as those described in EP 619,322 to Gelfand, et al., and U.S. Pat. No. 5,120,712, respectively. The entire teachings of these references are incorporated herein by reference.

[3] = Zn/GLP-1 molar ratio 0, 100 μM GLP-1 compound
[4] = Zn/GLP-1 molar ratio 0.3, 100 μM GLP-1 compound
[5] = Zn/GLP-1 molar ratio 0.5, 100 μM GLP-1 compound
[6] = Zn/GLP-1 molar ratio 0.7, 100 μM GLP-1 compound
[7] = Zn/GLP-1 molar ratio 1, 100 μM GLP-1 compound
[8] = Zn/GLP-1 molar ratio 2, 100 μM GLP-1 compound
[9] = Zn/GLP-1 molar ratio 3, 100 μM GLP-1 compound
[10] = Zn/GLP-1 molar ratio 5, 100 μM GLP-1 compound

## Val^8-Lys^22-GLP-1(7-37)OH (HVEGTFTSDVSSYLEKQAAKEFIAWLVKGRG)
[1]
  Aggregation Time: 100 h and 54 h
[2]; [3]
  A280: 0.299
[2]; [4]
  A280: 0.0825
[2]; [5]
  A280: 0.0905
[2]; [6]
  A280: 0.1195
[2]; [7]
  A280: 0.1225
[2]; [8]
  A280: 0.1675
[2]; [9]
  A280: 0.1475
[2]; [10]
  A280: 0.142
GLP-1 receptor
  GLP-1 Receptor Activation: 0.58

## Val^8-Ser^22-GLP-1(7-37)OH (HVEGTFTSDVSSYLESQAAKEFIAWLVKGRG)
[1]
  Aggregation Time: 22 h
[2]; [3]
  A280: 0.2855
[2]; [4]
  A280: 0.2805
[2]; [5]
  A280: 0.2665
[2]; [6]
  A280: 0.1825
[2]; [7]
  A280: 0.149
[2]; [8]
  A280: 0.0935
[2]; [9]
  A280: 0.101
[2]; [10]
  A280: 0.0615
GLP-1 receptor
  GLP-1 Receptor Activation: 0.50

## Val^8-Glu^22-GLP-1(7-37)OH (HVEGTFTSDVSSYLEEQAAKEFIAWLVKGRG)
[1]
  Aggregation Time: 72 h
[1]; relative to GLP-1(7-37)OH
  aggregation time compared with GLP-1(7-37)OH: over twenty fold greater
[2]; [3]
  A280: 0.295
[2]; [4]
  A280: 0.291
[2]; [5]
  A280: 0.292
[2]; [6]
  A280: 0.293
[2]; [7]
  A280: 0.26
[2]; [8]
  A280: 0.078
[2]; [9]
  A280: 0.052
[2]; [10]
  A280: 0.035
GLP-1 receptor
  GLP-1 Receptor Activation: 1.29
GLP-1 receptor; relative to GLP-1(7-37)OH
  GLP-1 receptor activation greater than GLP-1(7-37)OH: about 25%

## Val^8-Pro^22-GLP-1(7-37)OH (HVEGTFTSDVSSYLEPQAAKEFIAWLVKGRG)
[1]
  Aggregation Time: >75 h
[2]; [3]
  A280: 0.2595
[2]; [4]
  A280: 0.2455
[2]; [5]
  A280: 0.2325
[2]; [6]
  A280: 0.219
[2]; [7]
  A280: 0.1905
[2]; [8]
  A280: 0.1695
[2]; [9]
  A280: 0.1615
[2]; [10]
  A280: 0.171
GLP-1 receptor
  GLP-1 Receptor Activation: 0.01

## Val^8-Ala^22-GLP-1(7-37)OH (HVEGTFTSDVSSYLEAQAAKEFIAWLVKGRG)
[1]
  Aggregation Time: 19 h
[2]; [3]
  A280: 0.289
[2]; [4]
  A280: 0.202
[2]; [5]
  A280: 0.107
[2]; [6]
  A280: 0.104
[2]; [7]
  A280: 0.110
[2]; [8]
  A280: 0.110
[2]; [9]
  A280: 0.104
[2]; [10]
  A280: 0.119
GLP-1 receptor
  GLP-1 Receptor Activation: 0.56

## Val^8-Asp^22-GLP-1(7-37)OH (HVEGTFTSDVSSYLEDQAAKEFIAWLVKGRG)
[1]
  Aggregation Time: >90 h
[2]; [3]
  A280: 0.288
[2]; [4]
  A280: 0.2785
[2]; [5]
  A280: 0.2845
[2]; [6]
  A280: 0.287
[2]; [7]
  A280: 0.291
[2]; [8]
  A280: 0.184
[2]; [9]
  A280: 0.1485
[2]; [10]
  A280: 0.1675
GLP-1 receptor
  GLP-1 Receptor Activation: 0.40

## Val^8-His^37-GLP-1(7-37)OH (HVEGTFTSDVSSYLEGQAAKEFIAWLVKGRH)
[1]
  Aggregation Time: >40 h
GLP-1 receptor
  GLP-1 Receptor Activation: 0.33

## Val^8-Glu^22-Lys^23-GLP-1(7-37)OH (HVEGTFTSDVSSYLEEKAAKEFIAWLVKGRG)
[1]
  Aggregation Time: >65 h
GLP-1 receptor
  GLP-1 Receptor Activation: 1.43

## Ala^8-His^26-GLP-1(7-37)OH (HAEGTFTSDVSSYLEGQAAHEFIAWLVKGRG)
[1]
  Aggregation Time: >24 h
GLP-1 receptor
  GLP-1 Receptor Activation: 0.8

## Val^8-Asp^30-GLP-1(7-37)OH (HVEGTFTSDVSSYLEGQAAKEFIDWLVKGRG)
[1]
  Aggregation Time: >45 h
GLP-1 receptor
  GLP-1 Receptor Activation: 0.15

## Val^8-Glu^36-GLP-1(7-37)OH (HVEGTFTSDVSSYLEGQAAKEFIAWLVKGEG)
[1]
  Aggregation Time: >45 h
GLP-1 receptor
  GLP-1 Receptor Activation: 0.11

## Val^8-Lys^22-Glu^23-GLP-1(7-37)OH (HVEGTFTSDVSSYLEKEAAKEFIAWLVKGRH)
[1]
  Aggregation Time: >30 h
GLP-1 receptor
  GLP-1 Receptor Activation: 0.35

## Val^8-Lys^23-GLP-1(7-37)OH (HVEGTFTSDVSSYLEGKAAKEFIAWLVKGRG)
[1]
  Aggregation Time: >45 h
GLP-1 receptor
  GLP-1 Receptor Activation: 0.18

## Val^8-His^24-GLP-1(7-37)OH (HVEGTFTSDVSSYLEGQHAKEFIAWLVKGRG)
[1]
  Aggregation Time: 3 h
GLP-1 receptor
  GLP-1 Receptor Activation: 0.007

## Val^8-Leu^16-Glu^26-GLP-1(7-37)OH (HVEGTFTSDLSSYLEGQAAEEFIAWLVKGRG)
[1]
  Aggregation Time: >20 h
GLP-1 receptor
  GLP-1 Receptor Activation: 0.23

## Val^8-Ala^16-GLP-1(7-37)OH (HVEGTFTSDASSYLEGQAAKEFIAWLVKGRG)
[1]
  Aggregation Time: 16 h
GLP-1 receptor
  GLP-1 Receptor Activation: 0.112

## Val^8-Lys^24-GLP-1(7-37)OH (HVEGTFTSDVSSYLEGQKAKEFIAWLVKGRG)
[1]
  Aggregation Time: 22 h
GLP-1 receptor
  GLP-1 Receptor Activation: 0.02

## Val^8-Gly^33-GLP-1(7-37)OH (HVEGTFTSDVSSYLEGQAAKEFIAWLGKGRG)
[1]
  Aggregation Time: 9 h
GLP-1 receptor
  GLP-1 Receptor Activation: 0.01

## Gln^22-GLP-1(7-37)OH (HAEGTFTSDVSSYLEQQAAKEFIAWLVKGRG)
[1]
  Aggregation Time: 7 h
[2]; [3]
  A280: 0.290
[2]; [4]
  A280: 0.390
[2]; [5]
  A280: 0.123
[2]; [6]
  A280: 0.076
[2]; [7]
  A280: 0.074
[2]; [8]
  A280: 0.095
[2]; [9]
  A280: 0.095
[2]; [10]
  A280: 0.097
GLP-1 receptor
  GLP-1 Receptor Activation: 0.42

## Val^8-His^27-GLP-1(7-37)OH (HVEGTFTSDVSSYLEGQAAKHFIAWLVKGRG)
[1]
  Aggregation Time: 10 h
GLP-1 receptor
  GLP-1 Receptor Activation: 0.37

## Val^8-Glu^22-Gln^23-GLP-1(7-37)OH (HVEGTFTSDVSSYLEEQAAKEFIAWLVKGRG)
[1]
  Aggregation Time: >20 h
GLP-1 receptor
  GLP-1 Receptor Activation: 0.47
